Among the data in publication doi:10.1101/2023.09.22.558821 are stoichiometry N values, retold here.

This assay addresses murine CIZ1 C-terminal fragment C181 (terminal 181 amino-acids) (mouse). Kind of assay: SEC-MALS. A general note: In gel filtration, larger molecules generally elute earlier.

Usually stoichiometry N stands for a count of units in the complex or per binding partner. For “murine CIZ1 C-terminal fragment C181 (terminal 181 amino-acids) (domain or fragment)”, the stoichiometry N amounted to 2.
